Source: paper PMC7961094, “Development of a colorimetric α-ketoglutarate detection assay for prolyl hydroxylase domain (PHD) proteins” (The Journal of Biological Chemistry, 2021)
Several values for one entry are separate records, joined by “and”; a condition that tells them apart may be missing. Identical values can stand only once.

Columns and labels:
[1] = biological target: MBP-HA-PHD3 (full-length human prolyl hydroxylase domain protein 3) (human) (UniProt Q9H6Z9)
[2] = biological target: MBP-HA-PHD3 (full-length human prolyl hydroxylase domain protein 3) (human) (UniProt Q9H6Z9); remark: listed apart in the source
[3] = substrate: CC[C@H](C)[C@H](NC(=O)[C@H](Cc1ccc(O)cc1)NC(=O)[C@@H]1CCCN1C(=O)[C@H](C)NC(=O)[C@H](CC(C)C)NC(=O)[C@H](CCSC)NC(=O)[C@H](CCC(=O)O)NC(=O)[C@H](CC(C)C)NC(=O)[C@H](CC(=O)O)NC(=O)[C@H](CC(C)C)NC(=O)[C@@H](N)CC(=O)O)C(=O)N1CCC[C@H]1C(=O)N[C@@H](CCSC)C(=O)N[C@@H](CC(=O)O)C(=O)N[C@@H](CC(=O)O)C(=O)N[C@@H](CC(=O)O)C(=O)N[C@@H](Cc1ccccc1)C(=O)N[C@@H](CCC(N)=O)C(=O)N[C@@H](CC(C)C)C(=O)O; experiment: purified protein, by the assay type; conditions: pH 7.0, 37.0 °C
[4] = substrate: O=C(O)CCC(=O)C(=O)O; experiment: purified protein, by the assay type; conditions: pH 7.0, 37.0 °C
[5] = other: PHD3, HIF-1α CODD substrate, This work (Table 2)

B1: synthetic ACC2 peptide encompassing the P450 residue (peptide)
peptide: ERIGFPLMIKASEGGGGK
With B1 the Km of PHD3 for the ACC2 P450 peptide, initial rates of α-ketoglutarate consumption in the 2,4-DNPH α-KG assay (10 μM PHD3) [1] was 41.2 µM.

B2: synthetic HIF-1α peptide encompassing the P564 residue (HIF-1α CODD, 19-mer) (peptide)
peptide: DLDLEMLAPYIPMDDDFQL
For B2, the Km (app; substrate) of PHD3 for the HIF-1α peptide, initial rates of α-ketoglutarate consumption in the 2,4-DNPH α-KG assay (10 μM PHD3, 37 °C, pH 7.0) [2] was 0.024 mM.

B3: PHD2_181-426 (Homo sapiens) (protein)
chain: PNGQTKPLPALKLALEYIVPCMNKHGICVVDDFLGKETGQQIGDEVRALHDTGKFTDGQLVSQKSDSSKDIRGDKITWIEGKEPGCETIGLLMSSMDDLIRHCNGKLGSYKINGRTKAMVACYPGNGTGYVRHVDNPNGDGRCVTCIYYLNKDWDAKVSGGILRIFPEGKAQFADIEPKFDRLLFFWSDRRNPHEVQPAYATRYAITVWYFDADERARAKVKYLTGEKGVRVELNKPSDSVGKDVF
For B3, the Km ([3]; other: increasing HIF-1α peptide (P564), saturating concentrations of all other reagents, 3 μM PHD2) was 5.2 ± 0.9 µM and 5.192 ± 0.940 µM and the Km ([4]; other: increasing α-ketoglutarate, 100 μM peptide substrate, 3 μM PHD2) was 12.0 ± 3.0 µM and 11.970 ± 3.006 µM.

B4: PHD3 (Homo sapiens) (protein)
chain: MPLGHIMRLDLEKIALEYIVPCLHEVGFCYLDNFLGEVVGDCVLERVKQLHCTGALRDGQLAGPRAGVSKRHLRGDQITWIGGNEEGCEAISFLLSLIDRLVLYCGSRLGKYYVKERSKAMVACYPGNGTGYVRHVDNPNGDGRCITCIYYLNKNWDAKLHGGILRIFPEGKSFIADVEPIFDRLLFFWSDRRNPHEVQPSYATRYAMTVWYFDAEERAEAKKKFRNLTRKTESALTED
Binder B4 has a Km [3, 5] of 24.03 ± 5.964 µM, a kcat [3, 5] of 0.06062 ± 0.00278 s⁻¹ and a kcat/Km [3, 5] of 2523 ± 466 M⁻¹ s⁻¹. For the same binder, the Km ([3]; other: increasing HIF-1α peptide (P564), saturating concentrations of all other reagents, PHD3) was 24.0 ± 6.0 µM, the Km [4, 5] was 43.29 ± 7.295 µM and the Km ([4]; other: increasing α-ketoglutarate, 100 μM peptide substrate, 10 μM PHD3) was 43.3 ± 7.3 µM.
